Data reported in US20050010028A1 (KEIO UNIVERSITY, published 2005).

B1: Rhodamine green-labeled c-Fos (other, UniProt P01101 118-211, looked up)
chain: GRAQSIGRRGKVEQLSPEEEEKRRIRRERNKMAAAKCRNRRRELTDTLQAETDQLEDEKSALQTEIANLLKEKEKLEFILAAHRPACKIPDDLG
modifications: C-terminus joined through puromycin to a rhodamine green modifying agent that also carries biotin or iminobiotin (Modifying agent 22 or 23; which one in the FCCS sample is not stated)
notes: also called Rh-Fos; rhodamine green-modified c-fos; not shown: T7 tag at the N-terminus; C-terminal polyhistidine tag

Key:
[1] = target: T1, Cy5-labeled c-Jun (mouse, UniProt P05627 216-318, C-terminus joined through puromycin to a Cy5 modifying agent that also carries biotin or iminobiotin (Modifying agents 24-26; Modifying agent 25 in FIGS. 14 and 15; the agent used in the FCCS sample …); experiment: fluorescence cross-correlation spectroscopy in solution, 10 nM each of the two labelled proteins and AP-1 double-stranded DNA
T1 construct: also called Cy5-Jun; Cy5-modified c-Jun; not shown: T7 tag at the N-terminus; C-terminal polyhistidine tag
T1 sequence (P05627 216-318): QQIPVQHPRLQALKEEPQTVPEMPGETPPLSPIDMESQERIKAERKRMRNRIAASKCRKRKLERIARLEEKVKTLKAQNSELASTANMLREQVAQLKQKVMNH
Description: (§1) Intermolecular interactions were analyzed by fluorescence cross-correlation spectroscopy using fluorescence-labeled c-Fos and c-Jun as well as AP-1 sequence double-stranded DNA. DNA and the modified proteins (at a final concentration of 10 nM each) were mixed. 10 μl of this sample was applied to an 8-well glass chamber (Nunc), and fluorescence cross-correlations were measured by using a fluorescence correlation spectrometer, ConfoCor2 (Car1 Zeiss). […] Based on the above, it was confirmed that proteins labeled with fluorescence according to the present invention could be used to detect protein interactions by using a fluorescence cross-correlation spectroscopy and further could be utilized for convenient and quick measurement of dissociation constant.

[2] = target: T2, Fos modified with TAMRA-dC-puromycin (Modifying agent 19) (mouse, UniProt P01101 118-211, C-terminus joined to TAMRA-dC-puromycin (Modifying agent 19)); experiment: protein microarray: STA-Fos on a biotin plate, labelled Fos in solution, fluorescence scan
T2 construct: also called C-terminal fluorescence-labeled Fos; Fos protein having 12 His tags

[3] = target: B1; experiment: fluorescence cross-correlation spectroscopy in solution, Cy5-Fos + Rh-Fos + AP-1 DNA
Description: as §1

## B1
[1]
  Kd: ~10 nM

B2: streptavidin-fused Fos protein (other, UniProt P01101 118-211, looked up)
chain: GRAQSIGRRGKVEQLSPEEEEKRRIRRERNKMAAAKCRNRRRELTDTLQAETDQLEDEKSALQTEIANLLKEKEKLEFILAAHRPACKIPDDLG
notes: From plasmid pSP6-STA-Fos (pET20b backbone), spotted as translation solution on a biotin-coated slide; also called STA-Fos; STA-Fos(F); not shown: T7 tag at the N-terminus of streptavidin; streptavidin, gene amplified from the Streptomyces avidinii genome
[2]
  binding result: no binding

B3: Cy5-labeled c-Fos (other, UniProt P01101 118-211, looked up)
chain: GRAQSIGRRGKVEQLSPEEEEKRRIRRERNKMAAAKCRNRRRELTDTLQAETDQLEDEKSALQTEIANLLKEKEKLEFILAAHRPACKIPDDLG
modifications: C-terminus joined through puromycin to a Cy5 modifying agent that also carries biotin or iminobiotin (Modifying agents 24-26; Modifying agent 25 in FIGS. 14 and 15; the agent used in the FCCS sample is not stated)
notes: also called Cy5-Fos; not shown: T7 tag at the N-terminus; C-terminal polyhistidine tag
[3]
  binding result: no binding (tested: 10 nM each)
